# According to paper PMC5452035, “Structural insight into recognition of phosphorylated threonine‐4 of RNA polymerase II C‐terminal domain by Rtt103p” (EMBO Reports, 2017):
# Columns and labels:
# Assay in all cases: fluorescence polarisation; fluorescence anisotropy; Rtt103p CID titrated into 10 nM N-terminally FAM-labelled CTD peptide; 10°C; 35 mM KH2PO4, 100 mM KCl, pH 6.8; 1:1 model with non-specific binding (DynaFit)
# [1] = biological target: FAM-PSY(pS)P(pT)…
# [2] = biological target: FAM-PSY(pS)…
# [3] = biological target: FAM-PSYSP(pT)SPSYSP(pT)SPS
# [4] = biological target: FAM-PSYSP(pT)…
# [5] = biological target: FAM-…
substance,measurement,setting,value
Rtt103p CTD-interacting domain (CID) (3-131-6xHIS) (from UniProt Q05543 3-131) (domain or fragment),Kd,[1],43 µM
same,Kd,[2],6 µM
same,Kd,[3],6 µM
same,Kd,[4],15 µM
same,Kd,[5],64 µM
